# Test results published in patent publication US20220089746A1 (INSTITUT NATIONAL DE LA RECHERCHE SCIENTIFIQUE, published 2022).
# Like-named read-outs stand apart in the source and are kept apart here.
# B1: Nanobody 219_H09 (VHH)
# VHH: EVQLQASGGGFVQPGGSLRLSCAASGSTSYGETMGWFRQAPGKEREFVSAISYYSTRKPYYADSVKGRFTISRDNSKNTVYLQMNSLRAEDTATYYCAIVAYIYADGVRGYHQKIDYWGQGTQVTVSS
# notes: 184 aa with the tag, so CDR3 has 18 residues, which fits CDR set (g) or (i)
# B2: Nanobody 218_B04 (VHH)
# VHH: EVQLQASGGGFVQPGGSLRLSCAASGRTSSQDIMGWFRQAPGKEREFVSAISDYSGGNVYYADSVKGRFTISRDNSKNTVYLQMNSLRAEDTATYYCAFLGEEKTSWYWGQGTQVTVSS
# notes: 175 aa with the tag, so CDR3 has 9 residues, which fits CDR set (a), (e) or (h)
# B3: Nanobody 218_F09 (VHH)
# VHH: EVQLQASGGGFVQPGGSLRLSCAASGTTSNGEVMGWFRQAPGKEREFVSAISFGAGSSEYYADSVKGRFTISRDNSKNTVYLQMNSLRAEDTATYYCAASWYHSSIGSMSYWGQGTQVTVSS
# notes: 178 aa with the tag, so CDR3 has 12 residues, which fits CDR set (b) or (d)
# B4: Nanobody 218_D11 (VHH)
# VHH: EVQLQASGGGFVQPGGSLRLSCAASGDTSRFDVMGWFRQAPGKEREFVSAISWWSSDHIYYADSVKGRFTISRDNSKNTVYLQMNSLRAEDTATYYCAYGEYPPRMNRRPYWGQGTQVTVSS
# notes: as for B3
# B5: Nanobody 219_F02 (VHH)
# VHH: EVQLQASGGGFVQPGGSLRLSCAASGSTSYSSTMGWFRQAPGKEREFVSAISFDGTSKPYYADSVKGRFTISRDNSKNTVYLQMNSLRAEDTATYYCAAGEWEALMWPPVHDFWIYYWGQGTQVTVSS
# notes: as for B1
# B6: Nanobody 216_A01 (SEQ ID NO: 6) (VHH)
# VHH: EVQLQASGGGFVQPGGSLRLSCAASGRYSRIEIMGWFRQAPGKEREFVSAISSTPSSNEYYADSVKGRFTISRDNSKNTVYLQMNSLRAEDTATYYCARWDWHSWDTYWGQGTQVTVSS
# notes: Humanized synthetic single domain antibody, his-tagged, made in E. coli; 175 aa with the tag; also called NB #2
# B7: Nanobody 219_A01 (VHH)
# VHH: EVQLQASGGGFVQPGGSLRLSCAASGGGYDWDAMGWFRQAPGKEREFVSAISSNNNGSRYYADSVKGRFTISRDNSKNTVYLQMNSLRAEDTATYYCAADQYWGQGTQVTVSS
# notes: 169 aa with the tag, so CDR3 has 3 residues
# B8: Nanobody 218_A01 (VHH)
# VHH: EVQLQASGGGFVQPGGSLRLSCAASGAGSRSDVMGWFRQAPGKEREFVSAISGFWGWTTYYADSVKGRFTISRDNSKNTVYLQMNSLRAEDTATYYCALGGAPGQTGYWGQGTQVTVSS
# notes: as for B2
# B9: Nanobody 219_F09 (VHH)
# VHH: EVQLQASGGGFVQPGGSLRLSCAASGAYSFESGMGWFRQAPGKEREFVSAISSDADLFSYYADSVKGRFTISRDNSKNTVYLQMNSLRAEDTATYYCAAFSSGGELSYWGQGTQVTVSS
# notes: as for B2
# B10: Nanobody 216_D11 (VHH)
# VHH: EVQLQASGGGFVQPGGSLRLSCAASGDTSESTSMGWFRQAPGKEREFVSAISRSSTWDAYYADSVKGRFTISRDNSKNTVYLQMNSLRAEDTATYYCAMADIFDHPQNASFMKYWGQGTQVTVSS
# notes: 181 aa with the tag, so CDR3 has 15 residues, which fits CDR set (c) or (l)
# B11: Nanobody 214_H05 (VHH)
# VHH: EVQLQASGGGFVQPGGSLRLSCAASGTTSNSSGMGWFRQAPGKEREFVSAISWDHGILTYYADSVKGRFTISRDNSKNTVYLQMNSLRAEDTATYYCAHGYVHFNMTHRHISDYWGQGTQVTVSS
# notes: Humanized synthetic single domain antibody (hs2dAb library, Hybrigenics); 181 aa with the tag, so CDR3 has 15 residues, which fits CDR set (c), (k) or (l)
# B12: Nanobody 217_C02 (SEQ ID NO: 52) (VHH)
# VHH: EVQLQASGGGFVQPGGSLRLSCAASGTYSSIEVMGWFRQAPGKEREFVSAISFEPNEFAYYADSVKGRFTISRDNSKNTVYLQMNSLRAEDTATYYCASSVEWRQNGKPNTASYWGQGTQVTVSS
# notes: Humanized synthetic single domain antibody, his-tagged, made in E. coli; 181 aa with the tag; also called NB #12
# Key:
# [1] = biological target: T1, recombinant human galectin-7 (human, UniProt P47929 1-136); assay: ELISA of the selected nanobody clone on hGAL-7 with His-tagged MBP as control; y axis 'ELISA Ratio'; no concentration given
# T1 construct: Prototypic galectin with one CRD; also called hGAL-7; human GAL-7
# [2] = biological target: T1, recombinant human galectin-7; assay: cell-based or functional assay
# [3] = biological target: T1, recombinant human galectin-7; assay: cell-based or functional assay; remark: listed apart in the source
# [4] = biological target: T1, recombinant human galectin-7; assay: SPR (BIACore), human GAL-7 on the sensor surface, Nb as analyte
# Procedure: SPR analysis. Binding affinities of his-tagged GAL-7-specific Nbs was measured by surface plasmon resonance (SPR) using a BIACore® system. Briefly, a buffer flow was run across the sensor surface, which has previously been coated with human GAL-7, then the Nbs were introduced into the device and allowed to bind to the immobilized antigen. The stability of the binding between GAL-7 and the Nbs was measured and used to calculate the dissociation constant (Kd) of the Nbs for human GAL-7.
# [5] = biological target: T1, recombinant human galectin-7; assay: phage selection and ELISA (FIG. 3A)
# T1 sequence (P47929 whole entry): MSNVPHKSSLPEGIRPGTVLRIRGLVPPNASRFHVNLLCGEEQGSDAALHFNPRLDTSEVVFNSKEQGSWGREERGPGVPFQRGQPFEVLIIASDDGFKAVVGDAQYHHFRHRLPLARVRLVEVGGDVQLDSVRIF
Binder,binding result [1],other results
B1,binds,–
B2,binds,–
B3,binds,–
B4,binds,–
B5,binds,–
B6,–,"IC50 (read off the curve): inhibition of hGAL-7-induced apoptosis of Jurkat T cells (Annexin V, flow cytometry) [2]: ~3 µM; IC50 (read off the curve): inhibition of hGAL-7-induced apoptosis of Jurkat T cells (Annexin V, flow cytometry) [3]: ~2 µM; Kd [4]: 0.123 µM; koff [4]: 0.00348 s⁻¹; kon [4]: 28400 M⁻¹ s⁻¹"
B7,–,binding result [5]: binds
B8,binds,–
B9,binds,–
B10,binds,–
B11,binds,–
B12,–,Kd [4]: 1.5 µM; koff [4]: 0.00165 s⁻¹; kon [4]: 1100 M⁻¹ s⁻¹
